The target of assay [1] is human CD160, GPI-anchored isoform, on engineered cells (SupT1, 293T) (human) (UniProt O95971). As to the kind of experiment: flow cytometry, BY55-IgM-PE. The thick histogram (SupT1 CD160) peaks at about 10^4, the thin one (SupT1 negative) below 10^2 [Continued) B].
The target is the same in assay [2]. As to the kind of experiment: flow cytometry, 293T cells transiently transfected with pVAC2 human CD160; the same quadrant on non-transfected 293T cells prints 0.071. Background: In flow cytometry, cells or beads pass a laser one at a time.
For assay [3] the target is unchanged. As to the kind of experiment: flow cytometry, 293T cells transiently transfected with pVAC2 human CD160; the same quadrant on non-transfected 293T cells prints 1.53.

On to commercial anti-CD160 antibody BY55, for which the CD160+ (gate, share of cells) in assay [1] was found to be 92.9. In assay [2], this substance returned a Q2 (anti-CD160-PE positive, blank channel positive), share of cells of 14%. In assay [3], this substance gave a Q1 (anti-CD160-PE positive, blank channel negative), share of cells of 66%.

The values above are taken from patent US20240158500A1 (UCL BUSINESS, published 2024).
